# Laboratory results from US9494574B2, “T-cell death-inducing epitopes” (AbGenomics Cooperatief U.A., priority 2004, dated 2016).
# Entries after “also recorded” stand apart in the source; their conditions may differ.
# B1: m166-43B6: mouse monoclonal antibody from hybridoma raised against Concanovalin A-activated human T-cells; induces T-cell apoptosis (antibody, V domains shown)
# VL: ENVLTQSPAIMSASPGEKVTMTCRASSTVNSTYLHWFQQKSGASPKLWIYGSSNLASGVPARFSGSGSGTSYSLTISSVEAEDAATYYCQQYSGYPLTFGAGTTLELK
# VH: EVQLQQSGPDLVKPGALVKISCKASGYSFTAYYIHWVKQSHGKSLEWIGRVNPNTGGTSYNPKFKGKAILNVDKSSSTAYMELRSLTSEDSAVYYCARSGSPYYRYDDWGQGTTLTVSS
# B2: m152-15A7: mouse monoclonal antibody from hybridoma raised against Concanovalin A-activated human T-cells; induces T-cell apoptosis (antibody, V domains shown)
# VL: DILMTQTPLSLPVSLGDQASISCRSSQSIVHNDGNTYFEWYLQKPGQSPKLLIYKVSNRFSGVPDRFSGSGSGTHFTLNISRVEAEDLGIYYCFQGSYVPLTFGAGTKLELK
# VH: DVQLVESGGGLVQPGGSRKLSCAASGFTFSSFGMHWVRQAPEKGLEWVAYINGGSSTIFYANAVKGRFTISRDNPKNTLFLQMTILRSEDTAIYYCGRYASYGGGAMDYWGQGTSVTVSS
# B3: m128-9F9: mouse monoclonal antibody from hybridoma raised against Concanovalin A-activated human T-cells; induces T-cell apoptosis (antibody, V domains shown)
# VL: DVLMTQTPLSLPVSLGDQASISCRSSQSIVNSNGNTYLEWYLQKPGQSPKLLIYKVSNRFSGVPDRFSGSGSGTDFTLKISRVEAEDLGVYYCFQGSHVPWTFGGGTKLEIK
# VH: EVQLVETGGGLVQPKGSLKLSCAASGFTFNTNAMNWVRQAPGKGLEWVARIRSKSNNYATYYADSVKDRFTISRDDTQSMIYLQMNNLKTEDTGMYYCVRGGSYWYFDVWGAGTTVTVSS
# Test system: in vitro activated human T-cells
# Assay: Induction of death of activated human T-cells by monoclonal antibodies (annexin V staining, FACS, CD3-positive gated)
# Type: cell-based
# Settings: Day 7, in vitro activated human T-cells, hybridoma culture supernatant, 6 hours, annexin V positive among CD3-positive cells
# Description: Activated T cells (see above) were resuspended to a final concentration of 5×10^5 cells/ml in RPMI medium containing 5 ng/ml of IL-2, and treated with control Ig, m128-9F9, m152-15A7, or m166-43B6.
# (§1) It is well known that T-cell death-inducing antibodies can be used as therapeutic agents to treat T-cell-related diseases such as transplantation rejections, autoimmune diseases, and allergy. Three monoclonal antibodies against human T-cells were generated, and the capabilities of these monoclonal antibodies to induce apoptosis of activated human T-cells were examined. Culture supernatants containing monoclonal antibodies secreted by hybridoma cell line m128-9F9, m152-15A7, or m166-43B6 were incubated with either non-activated human T-cells (Day 0) or in vitro activated human T-cells (Day7) for 6 hours. Cells were stained with annexin V after incubation, and subjected to FACS analysis. CD3-positive cells were gated to ensure counting of either in vitro activated human T-cells or resting human T-cells. The apoptotic cells were annexin V staining-positive. […] This capability of inducing apoptosis of activated T-cells yet sparing the resting T-cells is a unique feature of the apoptotic pathway and is a dominating feature of therapeutic reagents targeting T-cell-mediated diseases.
row,Molecule,Percentage of apoptotic T-cells [%]
1,B1,49.44
2,B2,51.66
3,B3,28.71

# Same assay, conditions: annexin V staining and FACS analysis
row,Molecule,percentage of in vitro activated T-cells undergoing apoptosis compared to that of untreated cells
1,B1,about doubled
2,B2,about doubled
3,B3,about doubled

# Same assay, conditions: result in words
row,Molecule,induction of death (apoptosis) of in vitro activated human T-cells
1,B1,able to induce T-cell apoptosis in vitro; also recorded: induced death of in vitro activated human T-cells
2,B2,able to induce T-cell apoptosis in vitro; also recorded: induced death of in vitro activated human T-cells
3,B3,able to induce T-cell apoptosis in vitro; also recorded: induced death of in vitro activated human T-cells

# Test system: non-activated human T-cells
# Assay: Apoptosis of non-activated (resting) human T-cells with monoclonal antibodies (annexin V staining, FACS, CD3-positive gated)
# Type: cell-based
# Settings: Day 0, non-activated human T-cells, hybridoma culture supernatant, 6 hours, annexin V positive among CD3-positive cells
# Excerpt: as §1
row,Molecule,Percentage of apoptotic T-cells [%]
1,B1,6.57
2,B2,5.23
3,B3,5.82

# Same assay, conditions: result in words
row,Molecule,effect on non-activated human T-cells
1,B1,did not affect non-activated human T-cells
2,B2,did not affect non-activated human T-cells
3,B3,did not affect non-activated human T-cells
